Reference: publication PMC12207370, “Macrocyclic Peptide Probes for Immunomodulatory Protein CD59: Potent Modulators of Bacterial Toxin Activity and Antibody‐Dependent Cytotoxicity” (Angewandte Chemie (International Ed. in English), 2025)

Target: T1, biotinylated CD59 (Homo sapiens, UniProt P13987)
T1 construct: Recombinant soluble human CD59 with an additional C-terminal cysteine residue
T1 sequence (P13987 26-102 limits assumed): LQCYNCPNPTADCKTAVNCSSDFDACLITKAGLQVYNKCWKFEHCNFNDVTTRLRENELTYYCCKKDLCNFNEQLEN
Test: mRNA-display cyclic peptide screen against CD59-biotin, NGS abundance after 6th selection round
Details: for Counts (raw counts for peptide sequence), Seq I: NGS sample Seq I; for Counts (raw counts for peptide sequence), Seq I / Counts (raw counts for peptide sequence), Seq II / Counts Seq I / Counts Seq II: sheet R6 (6th selection round); for Counts (raw counts for peptide sequence), Seq II: NGS sample Seq II; for Percentage of the pool, averaged across the two sequencing samples: average of Seq I and Seq II; for Percentage of the pool, averaged across the two sequencing samples / Percentage of the pool, Seq I / Percentage of the pool, Seq II / Percentage Seq I / Percentage Seq II / Percentage Average: sheet R6; for Percentage of the pool, Seq I: counts normalised by total counts of NGS sample Seq I; for Percentage of the pool, Seq II: counts normalised by total counts of NGS sample Seq II; for Percentage Seq I: counts normalised by total counts of sample Seq I; for Percentage Seq I / Percentage Seq II: percentage of the pool; for Percentage Seq II: counts normalised by total counts of sample Seq II; for Percentage Average: percentage of the pool averaged across the two sequencing samples; for Counts Seq I / Counts Seq II: raw NGS counts of peptide sequence; for Counts Seq I: sequencing sample Seq I; for Counts Seq II: sequencing sample Seq II
Source text: To discover novel non‐protein CD59 ligands, we screened a library of 10^12 cyclic peptides against CD59 using mRNA‐display (Figure 2a).^[ [23], [24], [25], [26], [27], [28], [29] ^] Briefly, an mRNA library was designed in which the start codon was reprogrammed from Met to N‐chloroacetyl‐D‐Tyr (ClAc‐D‐Tyr), followed by 10–12 randomly encoded natural amino acids, a Cys residue, a (GlySer)3 linker, and a stop codon. […] The total library diversity was 1.51 × 10^13 molecules, comprising 5.02 × 10^12 molecules of each macrocycle size, covering a subset of the maximum theoretical diversity of this library design. Following in vitro translation, ClAc‐D‐Tyr spontaneously reacts with either the C‐terminal Cys or a Cys in the random region, yielding macrocyclic thioether peptides. Hits from the library were identified through iterative enrichment and amplification against biotinylated CD59, then immobilized on streptavidin beads. Fifteen hit sequences (CP‐01 to CP‐15), enriched with abundance >1% relative to the total pool of recovered binders after the 6th round of selection, were synthesized by solid phase peptide synthesis (SPPS), without the (Gly‐Ser)3 linker.
Figure 2 Discovery of macrocyclic peptide ligands with nanomolar CD59 affinity using mRNA display. a) The selection process. PCR = polymerase chain reaction, SPPS = solid phase peptide synthesis. b) Table showing details of the peptides with nanomolar affinity for CD59 as well as the binding affinity of the lead inhibitor of CD59, rILYd4. K D values are presented as the average of three technical replicates ± SEM. Structures of all peptides and SPR sensograms are presented in Figures S1 and S2. *indicates the presented sequences are the variable regions of these cyclic peptides; each is flanked by an N‐terminal Ac‐D‐Tyr cyclized to a C‐terminal Cys. R6 abundance (%) is defined as (the given number of NGS reads for a given sequence/the total number of reads of unique sequences observed in NGS)*100 following the 6th selection round. c) Representative sensogram of the interaction between CP‐06 with immobilized CD59 by SPR analysis. Inset showing the equilibrium binding curve of CP‐06 to CD‐59. Below in the box are the association and dissociation rate constants of CP‐06. Concentrations are plotted in descending order from 800‐3.1 nM in line with their position on the legend. […] (nM)'; the box with Kon/Koff has no label of its own / ILYd4: the label may be cut off at the left edge (possibly 'rILYd4') / CP-02, KD: 15.3 ± 0.2, small print, 3 or 8 uncertain / CP-03, KD: 23.4 ± 0.7, small print / CP-06, KD: 11.3 ± 0.0, small print, 3 or 8 uncertain / CP-13, KD: 10.8 ± 0.7, small print, 8 or 6 uncertain / ILYd4, KD: 48.3 ± 1.1, small print, 8 and 3 uncertain
The mRNA-display cyclic peptide screen was performed against CD59-biotin by T.E.M: DNA templates for transcription were generated by PCR in a similar manner to that previously described.^2 RNA oligonucleotides were transcribed from the DNA templates using T7 RNA polymerase and purified by phenol/chloroform extraction followed by ethanol precipitation. Oligonucleotide concentrations were determined spectroscopically by absorbance at 260 nm. In the first selection round a 1:1:1 molar ratio of NNK10/NNK11/NNK12 was used. The procedure for selection rounds 2-6 is described below; round 1 was conducted at twice the scale.
RNA encoding for the peptide library ligated to a puromycin-modified oligonucleotide was […] (final [RNA] = 2.5 µM) using a customised PURE express kit (lacking release factor 1 and methionine, supplemented with […] initiator tRNA acylated with N-chloroacetyl-d-tyrosine prepared as previously described)^3 in a final volume of 5.6 µL for 1 hour at 37 °C.
This mixture was incubated at 42 °C for 1 hour before being diluted to 500 µL with PBS (10 mM Na-PO4 pH 7.4, 2.7 mM KCl, 137 mM NaCl) and 0.5 µL taken for subsequent use in qPCR. […]

Row | Sequence | Counts (raw counts for peptide sequence), Seq I | Counts (raw counts for peptide sequence), Seq II | Percentage of the pool, averaged across the two sequencing samples | Percentage of the pool, Seq I | Percentage of the pool, Seq II | Percentage Seq I | Percentage Seq II | Percentage Average | Counts Seq I | Counts Seq II
1 | LAWGNRQIQYY | 78 | 6 | 0.016% | 0.018% | 0.014% |  |  |  |  | 
2 | WILGSRWWTRS |  |  |  |  |  | 0.097% | 0.111% | 0.104% | 424 | 48
3 | SACGNRQIQYY | 51 | 6 | 0.013% | 0.012% | 0.014% |  |  |  |  | 
4 | CYGGRTFIYEWS |  |  |  |  |  | 0.037% | 0.042% | 0.040% | 164 | 18
5 | CYGGRTSIYAWS |  |  |  |  |  | 0.032% | 0.023% | 0.028% | 142 | 10
6 | FVMGNRDHTRG |  |  |  |  |  | 0.017% | 0.023% | 0.020% | 76 | 10
7 | VASGGRYWSRA |  |  |  |  |  | 0.103% | 0.139% | 0.121% | 449 | 60
8 | GYKNECHSFNW | 40 | 6 | 0.012% | 0.009% | 0.014% |  |  |  |  | 
9 | CFAARLSNGDT | 73 | 7 | 0.016% | 0.017% | 0.016% |  |  |  |  | 
10 | HCWVRGSRNHT | 54 | 5 | 0.012% | 0.012% | 0.012% |  |  |  |  | 
11 | LCYVKGSKDFT |  |  |  |  |  | 0.027% | 0.019% | 0.023% | 120 | 8
12 | CFAGRLTIDAA | 78 | 1 | 0.010% | 0.018% | 0.00232% |  |  |  |  | 
13 | VKYGNSNFVRG |  |  |  |  |  | 0.660% | 0.657% | 0.659% | 2889 | 283
14 | CFIRRSIESGTA | 56 | 10 | 0.018% | 0.013% | 0.023% |  |  |  |  | 
15 | YLSGSSNFTRG |  |  |  |  |  | 0.042% | 0.044% | 0.043% | 184 | 19
16 | FVLGNRHTIVG | 57 | 6 | 0.013% | 0.013% | 0.014% |  |  |  |  | 
17 | WRDRFDQCVL |  |  |  |  |  | 2.463% | 2.351% | 2.407% | 10776 | 1013
18 | HVFGNKSFTRG | 63 | 9 | 0.018% | 0.014% | 0.021% |  |  |  |  | 
19 | FVTGDRDHTRG |  |  |  |  |  | 0.127% | 0.121% | 0.124% | 554 | 52
